What was measured:
Experiment in all cases: EMSA; EMSA: Beyotime GS606 kit binding buffer (composition not given), 1 ug protein and 1 uL of 2.5 nM biotin probe in 10 uL, on ice 10 min; pull-down: Pierce 20164 kit, 50 pmol RNA, 200 ug total protein, 4 C 30-60 min
Conditions in all cases: protein: recombinant; tags: GST; label: biotin; single strand
GST-FXR2 = GST-FXR2 (UniProt P51116 1-673)
GST-DDX6 = GST-DDX6 (UniProt P26196 1-483)
GST-L1TD1 = target: T1, GST-L1TD1 (UniProt Q5T7N2 1-865)
T1 sequence: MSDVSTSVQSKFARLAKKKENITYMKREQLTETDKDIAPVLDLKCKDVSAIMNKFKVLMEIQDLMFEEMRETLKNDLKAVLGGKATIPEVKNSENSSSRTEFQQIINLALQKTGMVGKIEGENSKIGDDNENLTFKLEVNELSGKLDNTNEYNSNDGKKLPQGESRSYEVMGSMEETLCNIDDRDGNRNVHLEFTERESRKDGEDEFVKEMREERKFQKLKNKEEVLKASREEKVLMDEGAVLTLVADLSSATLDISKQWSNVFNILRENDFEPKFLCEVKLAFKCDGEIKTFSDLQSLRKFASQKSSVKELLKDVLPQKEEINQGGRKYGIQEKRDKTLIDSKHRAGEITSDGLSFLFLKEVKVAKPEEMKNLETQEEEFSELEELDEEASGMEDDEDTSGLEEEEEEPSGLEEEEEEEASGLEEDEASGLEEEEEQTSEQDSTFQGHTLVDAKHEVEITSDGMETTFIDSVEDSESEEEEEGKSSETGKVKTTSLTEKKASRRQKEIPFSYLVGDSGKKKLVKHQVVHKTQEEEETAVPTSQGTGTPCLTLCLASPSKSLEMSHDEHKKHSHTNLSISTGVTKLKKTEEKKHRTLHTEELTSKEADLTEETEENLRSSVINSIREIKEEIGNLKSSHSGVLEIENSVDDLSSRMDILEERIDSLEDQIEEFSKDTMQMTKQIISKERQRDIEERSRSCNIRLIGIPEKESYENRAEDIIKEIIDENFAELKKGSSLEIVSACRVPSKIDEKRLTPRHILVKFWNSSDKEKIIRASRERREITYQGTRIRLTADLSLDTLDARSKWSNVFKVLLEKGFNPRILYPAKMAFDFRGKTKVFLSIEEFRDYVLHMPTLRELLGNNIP

GST-FUBP3 = GST-FUBP3 (UniProt Q96I24 1-572)

Measured: binding result

Chain of GST-FUBP3 (Q96I24 whole entry): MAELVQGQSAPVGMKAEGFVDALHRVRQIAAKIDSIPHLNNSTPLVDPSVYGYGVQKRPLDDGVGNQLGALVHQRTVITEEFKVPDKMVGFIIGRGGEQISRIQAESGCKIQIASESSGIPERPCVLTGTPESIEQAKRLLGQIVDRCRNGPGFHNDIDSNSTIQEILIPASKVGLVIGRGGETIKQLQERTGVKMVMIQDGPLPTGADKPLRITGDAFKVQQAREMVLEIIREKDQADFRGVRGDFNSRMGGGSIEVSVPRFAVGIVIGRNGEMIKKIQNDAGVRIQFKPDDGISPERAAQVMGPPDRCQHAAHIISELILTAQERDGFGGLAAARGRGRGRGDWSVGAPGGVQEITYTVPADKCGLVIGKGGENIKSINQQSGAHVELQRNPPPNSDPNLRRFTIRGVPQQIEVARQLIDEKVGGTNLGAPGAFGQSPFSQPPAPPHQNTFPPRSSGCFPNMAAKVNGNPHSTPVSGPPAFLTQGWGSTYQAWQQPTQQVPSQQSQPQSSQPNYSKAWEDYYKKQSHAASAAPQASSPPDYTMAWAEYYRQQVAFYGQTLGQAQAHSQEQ
Chain of GST-DDX6 (P26196 whole entry): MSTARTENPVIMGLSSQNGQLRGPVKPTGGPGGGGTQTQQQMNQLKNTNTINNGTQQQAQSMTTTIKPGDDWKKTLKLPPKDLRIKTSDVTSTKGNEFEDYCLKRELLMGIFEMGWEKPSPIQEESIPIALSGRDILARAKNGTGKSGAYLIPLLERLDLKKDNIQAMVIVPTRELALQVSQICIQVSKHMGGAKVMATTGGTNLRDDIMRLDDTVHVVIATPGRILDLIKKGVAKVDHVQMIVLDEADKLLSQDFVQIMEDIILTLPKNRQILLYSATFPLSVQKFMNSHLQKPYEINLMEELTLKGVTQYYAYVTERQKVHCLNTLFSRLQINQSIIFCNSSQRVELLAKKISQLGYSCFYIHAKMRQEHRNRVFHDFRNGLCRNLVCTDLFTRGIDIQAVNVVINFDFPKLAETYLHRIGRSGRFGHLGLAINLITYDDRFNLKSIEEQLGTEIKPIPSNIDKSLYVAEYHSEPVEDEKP
Chain of GST-FXR2 (P51116 whole entry): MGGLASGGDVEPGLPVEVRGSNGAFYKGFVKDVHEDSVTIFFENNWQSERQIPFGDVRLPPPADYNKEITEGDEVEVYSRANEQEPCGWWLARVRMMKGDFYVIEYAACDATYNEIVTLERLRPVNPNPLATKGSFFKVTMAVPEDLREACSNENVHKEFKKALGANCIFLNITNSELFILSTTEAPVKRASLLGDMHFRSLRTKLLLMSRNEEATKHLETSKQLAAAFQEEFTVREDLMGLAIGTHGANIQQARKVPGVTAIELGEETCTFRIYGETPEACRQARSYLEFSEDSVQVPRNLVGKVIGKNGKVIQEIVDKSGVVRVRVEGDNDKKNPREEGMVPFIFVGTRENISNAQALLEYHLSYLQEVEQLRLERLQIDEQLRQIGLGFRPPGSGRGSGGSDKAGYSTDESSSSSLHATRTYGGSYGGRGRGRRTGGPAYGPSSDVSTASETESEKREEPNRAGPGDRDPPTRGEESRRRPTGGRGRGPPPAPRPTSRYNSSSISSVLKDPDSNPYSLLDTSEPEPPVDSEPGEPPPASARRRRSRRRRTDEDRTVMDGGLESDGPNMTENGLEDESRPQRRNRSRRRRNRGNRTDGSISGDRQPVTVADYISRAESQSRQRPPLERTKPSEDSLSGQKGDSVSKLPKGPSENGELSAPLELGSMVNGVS

B1: ss-m6A (EMSA) (ssRNA)
RNA: CGUCUCGGACUCGGACUGCU
modifications: m6A at positions 9 and 15
binds: all assays above

Reference: article PMC13042514, “Comprehensive Profiling of N 6‐methyladnosine (m6A) Readouts Reveals Novel m6A Readers That Regulate Human Embryonic Stem Cell Differentiation”
